According to patent JP2014150761A (dated 2014):
Substitutions are numbered along the chain they refer to. In names and notes the source's numbering stands.

Tests used:
[1] = target: T1, mouse beta-NGF (R&D Systems) (mouse, UniProt P01139 122-241); test: cell-based or functional assay
[2] = target: T2, human beta-NGF (R&D Systems) (human, UniProt P01138 122-241); test: screening by Examples 3 to 8 (NGF-trkA binding inhibition ELISA, cell assays)
T2 construct: It was unlabelled in the ITC, DLS and cell assays; also called ヒトβNGF; ヒトNGF

[3] = target: T1, mouse beta-NGF (R&D Systems); test: competition ELISA with biotin-mouse βNGF on immobilised trkA (Example 4)
[4] = target: T2, human beta-NGF (R&D Systems); test: cell-based or functional assay
[5] = target: T2, human beta-NGF (R&D Systems); test: papain Fab tested by Examples 3, 6 and 7
[6] = target: T2, human beta-NGF (R&D Systems); test: competition ELISA: inhibition of biotin-human βNGF binding to immobilised human trkA (Example 3)
[7] = target: T2, human beta-NGF (R&D Systems); test: isothermal titration calorimetry in PBS: 44 μM human βNGF titrated into 1.5 μM Tanezumab, single site binding model

B1: PEGylated 1-15(N52D)-Fab' (Fab, V domains shown)
VH: QVQLQQWGAGLLKPSETLSLTCAVYGGSFSGYYWSWVRQPPGKGLEWIGEIDHSGSTNNNPSLKSRVTISVGTSKNQFSLKLSSVTAADTAVYYCSRDGGPESGMGAFDIWGQGTMVTVSS
VL: not shown
modifications: 40 kDa PEG (SUNBRIGHT GL2-400MA, maleimide) on the C-terminal Cys (EU C226; Cys 230 of SEQ ID NO 10)
IC50, neutralizing activity by the method of Example 6 (Ca2+ rise, HEK293 cells expressing human trkA) [1]: 0.069 µg/mL
fold stronger neutralizing activity than Tanezumab (method of Example 6) [1]: ~3.3 fold

B2: 1-15 antibody (chimeric antibody) (antibody, V domains shown)
VH: B1 VH with D52N
VL: not shown
notes: also called 1−15と命名した抗体(キメラ抗体)
binding result [2]: binds
binding result [3]: binds

B3: 1-15(N52D-A)-Fab'-5kPEG (Fab, V domains shown)
VH: B1 VH
VL: not shown
modifications: 5 kDa PEG (SUNBRIGHT GL2-50MA) bound by the procedure of Example 13 (hinge Cys)
IC50, neutralizing activity by the method of Example 6 (final NGF concentration 50 ng/ml) [4]: 0.03 µg/mL

B4: Fab fragment of the 1-15 antibody (papain digest) (Fab, V domains shown)
VH: B1 VH with D52N
VL: not shown
notes: also called 1-15 Fab; 1価の抗体フラグメント
binding result [5]: binds

B5: 1-15(N52D-A)-Fab'-10kPEG (Fab, V domains shown)
VH: B1 VH
VL: not shown
modifications: 10 kDa PEG (SUNBRIGHT GL2-100MA) bound by the procedure of Example 13 (hinge Cys)
IC50, neutralizing activity by the method of Example 6 (final NGF concentration 50 ng/ml) [4]: 0.028 µg/mL

B6: Tanezumab (antibody, V domains shown)
VH: QVQLQESGPGLVKPSETLSLTCTVSGFSLIGYDLNWIRQPPGKGLEWIGIIWGDGTTDYNSAVKSRVTISKDTSKNQFSLKLSSVTAADTAVYYCARGGYWYATSYYFDYWGQGTLVTVSS
VL: DIQMTQSPSSLSASVGDRVTITCRASQSISNNLNWYQQKPGKAPKLLIYYTSRFHSGVPSRFSGSGSGTDFTFTISSLQPEDIATYYCQQEHTLPYTFGQGTKLEIKR
IC50 [6]: 0.41 µg/mL
Kd [7]: 20.4 nM
IC50, neutralizing activity by the method of Example 6 (Ca2+ rise, HEK293 cells expressing human trkA) [4]: 0.17 µg/mL
IC50, neutralizing activity by the method of Example 6 (Ca2+ rise, HEK293 cells expressing human trkA) [1]: 0.23 µg/mL
